The supplement of paper PMC9732359
± gives the uncertainty stated by the source.

Assay: protein stability index of a GFP-peptide fusion (yeast GPS) (PSI 1-4); higher = more stable; sorted into four equal gates, so the index is relative within each strain
How it was run: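 Plasmids in a pooled yeast library fused tiled 17-residue yeast protein peptides downstream of GFP and also expressed Cherry. Mid-log cultures grown without leucine were sorted into four equal gates by GFP/Cherry fluorescence ratio. Each gate's plasmids were PCR-amplified and Illumina-sequenced, and reads were matched to strains by barcodes. The protein stability index is derived by multiplying each gate's read frequency by its gate number and summing the results.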

## LHGLTPTAKDVEVIKQL [GAL11]
doa10∆
  protein stability index: 3.08 ± 0.078
pdr5∆
  protein stability index: 2.64 ± 0.13
ubr1∆
  protein stability index: 2.26 ± 0.078

## LHKLQRMRLRALETENM [GRR1]
doa10∆
  protein stability index: 1.46 ± 0.046
pdr5∆
  protein stability index: 1.92 ± 0.059
san1∆
  protein stability index: 1.47 ± 0.077
ubr1∆
  protein stability index: 1.38 ± 0.032

## LHQHVVLKCLKSLESQR [RPC34]
doa10∆
  protein stability index: 2.77 ± 0.11
pdr5∆
  protein stability index: 2.58 ± 0.083
san1∆
  protein stability index: 2.41 ± 0.095
ubr1∆
  protein stability index: 2.53 ± 0.11

## LHQRTHKQVYPLRMETI [DSN1]
doa10∆
  protein stability index: 2.28 ± 0.06
pdr5∆
  protein stability index: 2.66 ± 0.042
san1∆
  protein stability index: 2.44 ± 0.048
ubr1∆
  protein stability index: 2.6 ± 0.039

## LHRLTPKNVKGEEDADE [RPN1]
doa10∆
  protein stability index: 3.65 ± 0.26

## LHVVITLLREVVFTRLV [CSN12]
doa10∆
  protein stability index: 1.26 ± 0.052
pdr5∆
  protein stability index: 1.26 ± 0.047
san1∆
  protein stability index: 1.14 ± 0.14
ubr1∆
  protein stability index: 1.37 ± 0.083

## LIAEESEDDSESGKVFI [RPB2]
doa10∆
  protein stability index: 3.03 ± 0.23
pdr5∆
  protein stability index: 3.63 ± 0.29
san1∆
  protein stability index: 3.48 ± 0.29

## LIDSLPGVDVSAEEQLR [SRB7]
doa10∆
  protein stability index: 2.59 ± 0.064
pdr5∆
  protein stability index: 2.23 ± 0.055
san1∆
  protein stability index: 1.96 ± 0.068
ubr1∆
  protein stability index: 1.84 ± 0.043

## LIEFQPSQGVHYKVPTD [MED6]
doa10∆
  protein stability index: 2.6 ± 0.066
pdr5∆
  protein stability index: 2.98 ± 0.061
san1∆
  protein stability index: 2.93 ± 0.062
ubr1∆
  protein stability index: 2.93 ± 0.046

## LIGCIPYSKNAVEQLAG [YDL088C/ASM4]
doa10∆
  protein stability index: 3.08 ± 0.2
pdr5∆
  protein stability index: 3.01 ± 0.14
san1∆
  protein stability index: 2.94 ± 0.088
ubr1∆
  protein stability index: 2.92 ± 0.27

## LIIDEIHLLHDDRGPVL [BRR2]
doa10∆
  protein stability index: 2.98 ± 0.1
pdr5∆
  protein stability index: 2.98 ± 0.1
san1∆
  protein stability index: 3.23 ± 0.046
ubr1∆
  protein stability index: 2.88 ± 0.099

## LIIDGFKSYATRTVITD [SMC2]
doa10∆
  protein stability index: 2.82 ± 0.11
pdr5∆
  protein stability index: 3.21 ± 0.09
san1∆
  protein stability index: 2.99 ± 0.071
ubr1∆
  protein stability index: 3.12 ± 0.083

## LIKAKNFLVFQGDVEQI [SMC1]
doa10∆
  protein stability index: 2.63 ± 0.19
pdr5∆
  protein stability index: 3.15 ± 0.12
san1∆
  protein stability index: 2.41 ± 0.17
ubr1∆
  protein stability index: 2.76 ± 0.23

## LIKFVDLSRNGRNGSNG [NUT1]
doa10∆
  protein stability index: 3.08 ± 0.074
pdr5∆
  protein stability index: 3.2 ± 0.099
san1∆
  protein stability index: 3.15 ± 0.068
ubr1∆
  protein stability index: 3.2 ± 0.069

## LILAGQVKVKGQLGEMA [YCS4]
doa10∆
  protein stability index: 3.49 ± 0.1
pdr5∆
  protein stability index: 3.35 ± 0.097
san1∆
  protein stability index: 3.12 ± 0.069
ubr1∆
  protein stability index: 2.87 ± 0.072

## LILIPGETMWVPIKSSK [RPN13]
doa10∆
  protein stability index: 2.17 ± 0.083
pdr5∆
  protein stability index: 2.51 ± 0.068
san1∆
  protein stability index: 2.61 ± 0.057
ubr1∆
  protein stability index: 1.81 ± 0.055

## LIPTIFRYITTWENEFL [PRP8]
doa10∆
  protein stability index: 2.38 ± 0.056
pdr5∆
  protein stability index: 2.04 ± 0.047
san1∆
  protein stability index: 1.75 ± 0.054
ubr1∆
  protein stability index: 2.21 ± 0.034

## LIQEHDSRKNREQSSND [BRN1]
doa10∆
  protein stability index: 3.38 ± 0.078
pdr5∆
  protein stability index: 3.38 ± 0.06
san1∆
  protein stability index: 3.19 ± 0.081
ubr1∆
  protein stability index: 3.45 ± 0.094

## LIQSTEFPSITSSVILG [YOR098C/NUP1]
doa10∆
  protein stability index: 3.16 ± 0.12
pdr5∆
  protein stability index: 3.44 ± 0.11
san1∆
  protein stability index: 2.11 ± 0.13
ubr1∆
  protein stability index: 3.17 ± 0.079

## LIRRLVRVGVLSEDKKK [RPS9A]
doa10∆
  protein stability index: 1.7 ± 0.24
pdr5∆
  protein stability index: 1.45 ± 0.29
ubr1∆
  protein stability index: 1.12 ± 0.18

## LISNLLFSKNRNEVLES [YCS4]
doa10∆
  protein stability index: 1.96 ± 0.062
pdr5∆
  protein stability index: 2.68 ± 0.06
san1∆
  protein stability index: 2.97 ± 0.052
ubr1∆
  protein stability index: 2.65 ± 0.056

## LITKANKVSYYGNPTSK [RTT102]
doa10∆
  protein stability index: 2.21 ± 0.044
pdr5∆
  protein stability index: 1.89 ± 0.042
san1∆
  protein stability index: 1.97 ± 0.089
ubr1∆
  protein stability index: 2.2 ± 0.045

## LIVDTHVQFRLGNVDAF [PRP8]
doa10∆
  protein stability index: 2.75 ± 0.11
pdr5∆
  protein stability index: 2 ± 0.11
san1∆
  protein stability index: 2.32 ± 0.13
ubr1∆
  protein stability index: 1.72 ± 0.066

## LKIIYTGLCSFDYSVIL [YJL039C/NUP192]
doa10∆
  protein stability index: 1.73 ± 0.081
pdr5∆
  protein stability index: 1.5 ± 0.057
san1∆
  protein stability index: 1.6 ± 0.11
ubr1∆
  protein stability index: 1.59 ± 0.071

## LKKNNYNSFPHSNLEKI [SIR4]
doa10∆
  protein stability index: 3.06 ± 0.099
pdr5∆
  protein stability index: 3.27 ± 0.094
san1∆
  protein stability index: 3.19 ± 0.053
ubr1∆
  protein stability index: 3.17 ± 0.054

## LKKRYDLSYNFNVHEVP [YMR129W/POM152]
doa10∆
  protein stability index: 2.78 ± 0.05
pdr5∆
  protein stability index: 2.6 ± 0.056
san1∆
  protein stability index: 2.7 ± 0.058
ubr1∆
  protein stability index: 2.82 ± 0.042

## LKKVQQQQQAAALANAN [SWI1]
doa10∆
  protein stability index: 1.83 ± 0.063
pdr5∆
  protein stability index: 2.45 ± 0.081
san1∆
  protein stability index: 2.1 ± 0.073
ubr1∆
  protein stability index: 1.78 ± 0.064

## LKLCLGDHSSVPVALKG [YMR129W/POM152]
doa10∆
  protein stability index: 2.79 ± 0.086
pdr5∆
  protein stability index: 2.91 ± 0.06
san1∆
  protein stability index: 2.74 ± 0.1
ubr1∆
  protein stability index: 3 ± 0.048

## LKLLVKLYTFLARRTDA [RPL18A]
doa10∆
  protein stability index: 2.26 ± 0.073
pdr5∆
  protein stability index: 1.99 ± 0.056
san1∆
  protein stability index: 1.75 ± 0.065
ubr1∆
  protein stability index: 1.97 ± 0.059

## LKLNHIIANINSFTKGN [SNU114]
doa10∆
  protein stability index: 1.52 ± 0.059
pdr5∆
  protein stability index: 2.15 ± 0.062
san1∆
  protein stability index: 1.83 ± 0.054
ubr1∆
  protein stability index: 1.84 ± 0.035

## LKMQQQQQQQQQQQQQQ [GAL11]
doa10∆
  protein stability index: 2.69 ± 0.084
pdr5∆
  protein stability index: 2.89 ± 0.073
san1∆
  protein stability index: 2.62 ± 0.073
ubr1∆
  protein stability index: 2.64 ± 0.067

## LKNCKISNINIPISSET [SMC1]
doa10∆
  protein stability index: 2.81 ± 0.17
pdr5∆
  protein stability index: 2.95 ± 0.11
san1∆
  protein stability index: 3.05 ± 0.08
ubr1∆
  protein stability index: 2 ± 0.067

## LKNKNFKCQEKDKGVYV [SIR2]
doa10∆
  protein stability index: 3.53 ± 0.22
pdr5∆
  protein stability index: 3.03 ± 0.093
san1∆
  protein stability index: 3.38 ± 0.077
ubr1∆
  protein stability index: 3.27 ± 0.17

## LKNMLYVLSTAVEFESV [BRR2]
doa10∆
  protein stability index: 1.77 ± 0.038
pdr5∆
  protein stability index: 1.58 ± 0.037
san1∆
  protein stability index: 1.88 ± 0.081
ubr1∆
  protein stability index: 1.42 ± 0.032

## LKPDLNKITNQGVTCLH [NAS6]
doa10∆
  protein stability index: 2.36 ± 0.11
pdr5∆
  protein stability index: 2.05 ± 0.052
san1∆
  protein stability index: 3.13 ± 0.079
ubr1∆
  protein stability index: 2.38 ± 0.059

## LKQDLKKISSFKSLIDE [YGL172W/NUP49]
doa10∆
  protein stability index: 2.81 ± 0.052
pdr5∆
  protein stability index: 2.79 ± 0.05
san1∆
  protein stability index: 3.08 ± 0.04
ubr1∆
  protein stability index: 3.06 ± 0.034

## LKQHNQNNLPPNFFLTL [BRR2]
doa10∆
  protein stability index: 2.81 ± 0.064
pdr5∆
  protein stability index: 3.07 ± 0.069
san1∆
  protein stability index: 2.84 ± 0.069
ubr1∆
  protein stability index: 2.94 ± 0.071

## LKRFPKMSVTCNAQPIT [BRR2]
doa10∆
  protein stability index: 2.33 ± 0.066
pdr5∆
  protein stability index: 2.23 ± 0.06
san1∆
  protein stability index: 2.02 ± 0.11
ubr1∆
  protein stability index: 1.9 ± 0.037

## LKSASKETAPVIDTLAA [RPL28]
doa10∆
  protein stability index: 2.07 ± 0.072
pdr5∆
  protein stability index: 2.41 ± 0.11
san1∆
  protein stability index: 2.68 ± 0.073
ubr1∆
  protein stability index: 2.12 ± 0.087

## LKSHYYQTCKNSEYLKR [SMC2]
doa10∆
  protein stability index: 1.54 ± 0.067
pdr5∆
  protein stability index: 1.5 ± 0.057
san1∆
  protein stability index: 1.36 ± 0.091
ubr1∆
  protein stability index: 1.85 ± 0.046

## LKTRDWIVVLPWFWLLP [POP1]
doa10∆
  protein stability index: 1.51 ± 0.12
san1∆
  protein stability index: 1.5 ± 0.23
ubr1∆
  protein stability index: 2.02 ± 0.1
